In article PMC7265302 one finds Kd data, which are given here for one substance.

The target of the assay is MavC, wild type (Legionella pneumophila) (UniProt Q5ZTL4). The assay can be described thus: ITC. (In general: In ITC the heat of successive injections is recorded.)

For the substance “Lpg2149, wild type (from UniProt Q5ZTL2 1-119) (natural protein)”, the Kd was 0.57 nM. This counts as sub-nanomolar.

By Kd is commonly meant the constant that tells how readily two partners part at equilibrium. A lower Kd goes with tighter binding.
